Patent US20120122239A1

What was measured:
[1] = molecular target: human NT-pro B-type natriuretic peptide (HyTest, Turku, Finland; Catalog No. 8NT1) (human); test: sandwich CMIA, capture 15F11, analyte 43.3 pM
[2] = molecular target: glycosylated human proBNP (HyTest, Turku, Finland; Catalog No. 8GOB2) (human); test: sandwich CMIA, capture 15F11, analyte 43.3 pM
[3] = molecular target: human pro B-type natriuretic peptide (HyTest, Turku, Finland; Catalog No. 8PRO8) (human); test: sandwich CMIA, capture 15F11, analyte 43.3 pM
[4] = molecular target: glycosylated human proBNP (HyTest, Turku, Finland; Catalog No. 8GOB2) (human); test: sandwich CMIA, capture 15C4, 86.6 pM, against human NT-proBNP
[5] = molecular target: human pro B-type natriuretic peptide (HyTest, Turku, Finland; Catalog No. 8PRO8) (human); test: as above
[6] = molecular target: human NT-pro B-type natriuretic peptide (HyTest, Turku, Finland; Catalog No. 8NT1) (human); test: sandwich CMIA, capture 15C4, analyte 86.6 pM
[7] = molecular target: glycosylated human proBNP (HyTest, Turku, Finland; Catalog No. 8GOB2) (human); test: sandwich CMIA, capture 15C4, analyte 86.6 pM
[8] = molecular target: human pro B-type natriuretic peptide (HyTest, Turku, Finland; Catalog No. 8PRO8) (human); test: sandwich CMIA, capture 15C4, analyte 86.6 pM
[9] = molecular target: human NT-pro B-type natriuretic peptide (HyTest, Turku, Finland; Catalog No. 8NT1) (human); test: sandwich CMIA, capture 15C4, analyte 577.4 pM
[10] = molecular target: glycosylated human proBNP (HyTest, Turku, Finland; Catalog No. 8GOB2) (human); test: sandwich CMIA, capture 15C4, analyte 577.4 pM
[11] = molecular target: human pro B-type natriuretic peptide (HyTest, Turku, Finland; Catalog No. 8PRO8) (human); test: sandwich CMIA, capture 15C4, analyte 577.4 pM
[12] = molecular target: human NT-pro B-type natriuretic peptide (HyTest, Turku, Finland; Catalog No. 8NT1) (human); test: sandwich CMIA, capture 15C4, analyte 43.3 pM
[13] = molecular target: glycosylated human proBNP (HyTest, Turku, Finland; Catalog No. 8GOB2) (human); test: sandwich CMIA, capture 15C4, analyte 43.3 pM
[14] = molecular target: human pro B-type natriuretic peptide (HyTest, Turku, Finland; Catalog No. 8PRO8) (human); test: sandwich CMIA, capture 15C4, analyte 43.3 pM
[15] = molecular target: glycosylated human proBNP (HyTest, Turku, Finland; Catalog No. 8GOB2) (human); test: sandwich CMIA, capture 15C4, 577.4 pM, against human NT-proBNP
[16] = molecular target: human pro B-type natriuretic peptide (HyTest, Turku, Finland; Catalog No. 8PRO8) (human); test: as above
[17] = molecular target: human NT-pro B-type natriuretic peptide (HyTest, Turku, Finland; Catalog No. 8NT1) (human); test: sandwich CMIA, capture 15C4, analyte 0.0 pM (blank)
[18] = molecular target: glycosylated human proBNP (HyTest, Turku, Finland; Catalog No. 8GOB2) (human); test: as above
[19] = molecular target: human pro B-type natriuretic peptide (HyTest, Turku, Finland; Catalog No. 8PRO8) (human); test: as above
[20] = molecular target: glycosylated human proBNP (HyTest, Turku, Finland; Catalog No. 8GOB2) (human); test: sandwich CMIA, capture 15C4, 288.7 pM, against human NT-proBNP
[21] = molecular target: human pro B-type natriuretic peptide (HyTest, Turku, Finland; Catalog No. 8PRO8) (human); test: as above
[22] = molecular target: human NT-pro B-type natriuretic peptide (HyTest, Turku, Finland; Catalog No. 8NT1) (human); test: sandwich CMIA, capture 15F11, analyte 577.4 pM
[23] = molecular target: glycosylated human proBNP (HyTest, Turku, Finland; Catalog No. 8GOB2) (human); test: sandwich CMIA, capture 15F11, analyte 577.4 pM
[24] = molecular target: human pro B-type natriuretic peptide (HyTest, Turku, Finland; Catalog No. 8PRO8) (human); test: sandwich CMIA, capture 15F11, analyte 577.4 pM
[25] = molecular target: human NT-pro B-type natriuretic peptide (HyTest, Turku, Finland; Catalog No. 8NT1) (human); test: sandwich CMIA, capture 15F11, analyte 0.0 pM (blank)
[26] = molecular target: glycosylated human proBNP (HyTest, Turku, Finland; Catalog No. 8GOB2) (human); test: as above
[27] = molecular target: human pro B-type natriuretic peptide (HyTest, Turku, Finland; Catalog No. 8PRO8) (human); test: as above
[28] = molecular target: human NT-pro B-type natriuretic peptide (HyTest, Turku, Finland; Catalog No. 8NT1) (human); test: sandwich CMIA, capture 15C4, analyte 288.7 pM
[29] = molecular target: glycosylated human proBNP (HyTest, Turku, Finland; Catalog No. 8GOB2) (human); test: sandwich CMIA, capture 15C4, analyte 288.7 pM
[30] = molecular target: human pro B-type natriuretic peptide (HyTest, Turku, Finland; Catalog No. 8PRO8) (human); test: sandwich CMIA, capture 15C4, analyte 288.7 pM
[31] = molecular target: human pro B-type natriuretic peptide (HyTest, Turku, Finland; Catalog No. 8PRO8) (human); test: sandwich CMIA, 15C4 (63-71) with 13G12 (13-20), against human NT-proBNP
[32] = molecular target: human NT-pro B-type natriuretic peptide (HyTest, Turku, Finland; Catalog No. 8NT1) (human); test: sandwich CMIA, capture 15F11, analyte 86.6 pM
[33] = molecular target: glycosylated human proBNP (HyTest, Turku, Finland; Catalog No. 8GOB2) (human); test: sandwich CMIA, capture 15F11, analyte 86.6 pM
[34] = molecular target: human pro B-type natriuretic peptide (HyTest, Turku, Finland; Catalog No. 8PRO8) (human); test: sandwich CMIA, capture 15F11, analyte 86.6 pM
[35] = molecular target: human NT-pro B-type natriuretic peptide (HyTest, Turku, Finland; Catalog No. 8NT1) (human); test: sandwich CMIA, capture 15F11, analyte 288.7 pM
[36] = molecular target: glycosylated human proBNP (HyTest, Turku, Finland; Catalog No. 8GOB2) (human); test: sandwich CMIA, capture 15F11, analyte 288.7 pM
[37] = molecular target: human pro B-type natriuretic peptide (HyTest, Turku, Finland; Catalog No. 8PRO8) (human); test: sandwich CMIA, capture 15F11, analyte 288.7 pM
[38] = molecular target: glycosylated human proBNP (HyTest, Turku, Finland; Catalog No. 8GOB2) (human); test: sandwich CMIA, capture 15C4, 43.3 pM, against human NT-proBNP
[39] = molecular target: human pro B-type natriuretic peptide (HyTest, Turku, Finland; Catalog No. 8PRO8) (human); test: as above
[40] = molecular target: human pro B-type natriuretic peptide (HyTest, Turku, Finland; Catalog No. 8PRO8) (human); test: sandwich CMIA, 15C4 (63-71) with 16F3 (13-20), against human NT-proBNP
[41] = molecular target: human pro B-type natriuretic peptide (HyTest, Turku, Finland; Catalog No. 8PRO8) (human); test: sandwich CMIA, 15C4 (63-71) with 18H5 (13-20), against human NT-proBNP

Chain of human NT-pro B-type natriuretic peptide (HyTest, Turku, Finland; Catalog No. 8NT1) (human) (chain, as listed by the source): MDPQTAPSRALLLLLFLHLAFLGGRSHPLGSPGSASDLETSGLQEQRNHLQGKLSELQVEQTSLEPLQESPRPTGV
Chain of human pro B-type natriuretic peptide (HyTest, Turku, Finland; Catalog No. 8PRO8) (human) (chain, as listed by the source): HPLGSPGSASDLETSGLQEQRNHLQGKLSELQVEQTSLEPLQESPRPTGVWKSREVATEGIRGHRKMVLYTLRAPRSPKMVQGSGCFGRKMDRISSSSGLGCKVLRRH

anti-human NT-proBNP/anti-human proBNP labeled monoclonal antibody 13G12 (HyTest, Turku, Finland)
Analyte rlus [1]: 777 rlus | Analyte rlus [2]: 798 rlus | Analyte rlus [3]: 800 rlus | % Cross-reactivity [4]: 0.1% | % Cross-reactivity [5]: 12.9% | Analyte rlus [6]: 25600 rlus | Analyte rlus [7]: 912 rlus | Analyte rlus [8]: 4080 rlus | Analyte rlus [9]: 309000 rlus | Analyte rlus [10]: 1240 rlus | Analyte rlus [11]: 37200 rlus | Analyte rlus [12]: 10300 rlus | Analyte rlus [13]: 905 rlus | Analyte rlus [14]: 2220 rlus | % Cross-reactivity [15]: 0.1% | % Cross-reactivity [16]: 11.8% | Analyte rlus [17]: 892 rlus | Analyte rlus [18]: 892 rlus | Analyte rlus [19]: 892 rlus | % Cross-reactivity [20]: 0.1% | % Cross-reactivity [21]: 12.1% | Analyte rlus [22]: 805 rlus | Analyte rlus [23]: 778 rlus | Analyte rlus [24]: 1080 rlus | Analyte rlus [25]: 841 rlus | Analyte rlus [26]: 841 rlus | Analyte rlus [27]: 841 rlus | Analyte rlus [28]: 131000 rlus | Analyte rlus [29]: 967 rlus | Analyte rlus [30]: 16700 rlus | % Cross-reactivity [31]: 10% | Analyte rlus [32]: 761 rlus | Analyte rlus [33]: 767 rlus | Analyte rlus [34]: 802 rlus | Analyte rlus [35]: 820 rlus | Analyte rlus [36]: 831 rlus | Analyte rlus [37]: 920 rlus | % Cross-reactivity [38]: 0.1% | % Cross-reactivity [39]: 14.1%

anti-human NT-proBNP/anti-human proBNP labeled monoclonal antibody 16F3 (HyTest, Turku, Finland)
% Cross-reactivity [40]: 10% | Analyte rlus [1]: 630 rlus | Analyte rlus [2]: 586 rlus | Analyte rlus [3]: 624 rlus | % Cross-reactivity [4]: -0.7% | % Cross-reactivity [5]: 11.9% | Analyte rlus [6]: 26500 rlus | Analyte rlus [7]: 861 rlus | Analyte rlus [8]: 4060 rlus | Analyte rlus [9]: 320000 rlus | Analyte rlus [10]: 1090 rlus | Analyte rlus [11]: 34700 rlus | Analyte rlus [12]: 11400 rlus | Analyte rlus [13]: 691 rlus | Analyte rlus [14]: 1990 rlus | % Cross-reactivity [15]: 0% | % Cross-reactivity [16]: 10.6% | Analyte rlus [17]: 1040 rlus | Analyte rlus [18]: 1040 rlus | Analyte rlus [19]: 1040 rlus | % Cross-reactivity [20]: -0.2% | % Cross-reactivity [21]: 9.1% | Analyte rlus [22]: 631 rlus | Analyte rlus [23]: 635 rlus | Analyte rlus [24]: 914 rlus | Analyte rlus [25]: 640 rlus | Analyte rlus [26]: 640 rlus | Analyte rlus [27]: 640 rlus | Analyte rlus [28]: 140000 rlus | Analyte rlus [29]: 827 rlus | Analyte rlus [30]: 13700 rlus | Analyte rlus [32]: 592 rlus | Analyte rlus [33]: 587 rlus | Analyte rlus [34]: 621 rlus | Analyte rlus [35]: 696 rlus | Analyte rlus [36]: 643 rlus | Analyte rlus [37]: 720 rlus | % Cross-reactivity [38]: -3.3% | % Cross-reactivity [39]: 9.2%

anti-human NT-proBNP/anti-human proBNP labeled monoclonal antibody 18H5 (HyTest, Turku, Finland)
Analyte rlus [1]: 621 rlus | Analyte rlus [2]: 618 rlus | Analyte rlus [3]: 628 rlus | % Cross-reactivity [4]: 0.2% | % Cross-reactivity [5]: 15.3% | Analyte rlus [6]: 39100 rlus | Analyte rlus [7]: 783 rlus | Analyte rlus [8]: 6590 rlus | Analyte rlus [9]: 337000 rlus | Analyte rlus [10]: 1580 rlus | Analyte rlus [11]: 46500 rlus | Analyte rlus [12]: 18000 rlus | Analyte rlus [13]: 756 rlus | Analyte rlus [14]: 3380 rlus | % Cross-reactivity [15]: 0.3% | % Cross-reactivity [16]: 13.6% | Analyte rlus [17]: 704 rlus | Analyte rlus [18]: 704 rlus | Analyte rlus [19]: 704 rlus | % Cross-reactivity [20]: 0.3% | % Cross-reactivity [41]: 10% | Analyte rlus [22]: 664 rlus | Analyte rlus [23]: 754 rlus | Analyte rlus [24]: 1440 rlus | Analyte rlus [25]: 626 rlus | Analyte rlus [26]: 626 rlus | Analyte rlus [27]: 626 rlus | Analyte rlus [28]: 162000 rlus | Analyte rlus [29]: 1230 rlus | Analyte rlus [32]: 636 rlus | Analyte rlus [33]: 737 rlus | Analyte rlus [34]: 664 rlus | Analyte rlus [35]: 708 rlus | Analyte rlus [36]: 663 rlus | Analyte rlus [37]: 949 rlus | % Cross-reactivity [38]: 0.3% | % Cross-reactivity [39]: 15.5%
